In patent publication US20230210940A1 (published 2023):
No end group written: not given here. *: point of attachment. FITC = O=C1OC2(c3ccc(O)cc3Oc3cc(O)ccc32)c2ccc(NC(=S)*)cc21; Ahx = NCCCCCC(=O)O

Biological target: T1, CD13 (human, UniProt P15144 2-967)
T1 construct: whole, on cells; Endogenous CD13 on the cell membrane, detected with PE-labeled anti-human CD13 antibody clone WM-15; also called human CD13
Test: Example 2 incubated with HT-1080 cells, anti-FITC immunoprecipitation, Western blot with anti-CD13 antibody WM-15
Procedure: Example 2 (80 μg/400 μL) reacted to HT-1080 cells (40 million cells) at 4° C. for 2 hours. The cells were then washed with PBS, and centrifuged. The centrifuged cells were dissolved in 1,000 μL of IP Lysis/Wash buffer (Thermo Fisher Scientific) with Halt Protease & Phosphatase inhibitor Single-Use Cocktail, ETDA-Free (Thermo Fisher Scientific) (10 μL) at 4° C. for 5 minutes. It was centrifuged at 4° C. for 10 minutes and the supernatant was collected. The supernatant was adjusted to be 1 mg in amount of protein and 80 μL of A/G agarose was added to it. The mixture was stirred at 4° C. for 1 hour and then centrifuged for 1 minute. Thus, a pre-treatment solution was obtained. 10 μg of IgG Fraction Monoclonal Mouse Anti-Fluorescein (FITC) (Jackson ImmunoResearch) or 10 μg of Mouse IgG Isotype Control (Thermo Fisher Scientific) was each added to the pre-treatment solution (1 mg/600 μL), and the mixtures were shaken at 4° C. overnight. Subsequently, 20 μL of A/G agarose was added and the mixtures were shaken at 4° C. for 2 hours. The mixtures were washed three times with the wash buffer described above and 20 μL of 2×Non-reducing Lane Marker Sample Buffer (Thermo Fisher Scientific) was added to the A/G agaroses. […]
The 10% solution used in immunoprecipitation was loaded to the left lane of FIG. 3. […] CD13 was not detected on the right lane, but CD 13 was detected on the center lane.

T1 sequence (P15144 2-967): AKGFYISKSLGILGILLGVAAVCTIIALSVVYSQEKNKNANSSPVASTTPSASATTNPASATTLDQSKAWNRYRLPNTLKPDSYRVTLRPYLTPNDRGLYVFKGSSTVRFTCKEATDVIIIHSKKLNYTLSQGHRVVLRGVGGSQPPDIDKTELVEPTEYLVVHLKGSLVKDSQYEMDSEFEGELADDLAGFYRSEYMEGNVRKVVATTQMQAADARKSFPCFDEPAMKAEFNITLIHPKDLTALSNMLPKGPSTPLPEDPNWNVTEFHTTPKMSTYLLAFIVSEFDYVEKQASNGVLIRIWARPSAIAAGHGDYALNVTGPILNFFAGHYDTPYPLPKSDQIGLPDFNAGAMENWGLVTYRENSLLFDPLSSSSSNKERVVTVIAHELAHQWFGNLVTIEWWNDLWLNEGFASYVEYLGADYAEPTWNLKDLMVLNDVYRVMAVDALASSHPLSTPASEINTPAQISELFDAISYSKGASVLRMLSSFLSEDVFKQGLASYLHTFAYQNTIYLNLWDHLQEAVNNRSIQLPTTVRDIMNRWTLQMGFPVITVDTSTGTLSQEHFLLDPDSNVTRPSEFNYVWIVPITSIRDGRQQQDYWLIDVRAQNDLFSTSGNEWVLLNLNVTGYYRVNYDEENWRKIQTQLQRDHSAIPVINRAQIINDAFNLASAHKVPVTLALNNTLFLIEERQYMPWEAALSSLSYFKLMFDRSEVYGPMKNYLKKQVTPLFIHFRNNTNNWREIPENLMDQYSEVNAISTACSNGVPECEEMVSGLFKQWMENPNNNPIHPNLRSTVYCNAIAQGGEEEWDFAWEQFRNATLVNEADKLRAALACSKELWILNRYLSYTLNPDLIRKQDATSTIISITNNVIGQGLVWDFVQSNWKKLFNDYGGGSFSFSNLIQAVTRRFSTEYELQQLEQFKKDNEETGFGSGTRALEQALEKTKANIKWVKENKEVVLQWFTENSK

binding result: binds
Binder: {FITC-Ahx}-KDNRGNLLQCVCTGNGRGEWKC (cysteine pairing not given here)
